This is an account of results in article PMC8581426, “CST6 protein and peptides inhibit breast cancer bone metastasis by suppressing CTSB activity and osteoclastogenesis” (Theranostics, 2021).

Data set [1] concerns RAW264.7 cells. The data set is described as follows: Internalization of His-tagged CST6 protein by RAW264.7 (Western blot). Conditions: RAW264.7 cultured with CST6-His and various concentrations of Dynasore; Fig. 2K. In kind it is cell-based, mouse. Here is the method: Cathepsins are lysosomal proteases and function only intracellularly in acidic environment. To verify that extracellularly derived CST6 could inhibit the intracellular CTSB activity of osteoclasts, RAW264.7 cells were cultured in the medium containing recombinant CST6 protein and the cell lysates were collected for CTSB activity analysis after phosphate-buffered saline (PBS) washing of the cells. […] Since osteoclasts are active in endocytosis, it is likely that exogenous CST6 is transported into osteoclasts via endocytosis. Indeed, we observed a co-localization of CST6 that entered the cells with the lysosome marker LAMP1 (Fig. S3B). […] Endocytosis inhibition also rescued the CST6-suppressed osteoclastogenesis of RAW264.7 cells (Fig. 2L).

The subject of data set [2] is RAW264.7 cells. The data set is described as follows: RAW264.7 osteoclastogenesis assay. The format is cell-based, mouse. How it is done:
(§1) Primary bone marrow cells were harvested by flushing the cavity of tibia and femur from 5-6 week old Balb/c mice. Erythrocytes were removed by treating cell suspension with the Red Blood Cell Lysing Buffer (R7757, Sigma) for 5 min. The remaining cells were cultured in α-MEM (A1049001, Gibco) supplemented with 10% FBS and 5 ng/ml M-CSF for 12 h. Non-adherent cells were transferred into a 24-well plate and cultured in α-MEM supplemented with 10% FBS, 25 ng/ml M-CSF and 25 ng/ml RANKL for another 5 to 6 days. Cancer cell CM was mixed with α-MEM at a ratio of 1:3. CST6 protein, peptides or other drugs at indicated concentrations were administrated into the culture medium. For assessment of osteoclast differentiation, cells were stained using the Acid Phosphatase TRAP staining kit (387A, Sigma) as previously described. For RAW264.7 osteoclastogenesis assay, 700 cells per well were added into a 96-well plate and cultured in the same medium as shown above except that M-CSF was not essential. 7 ug/ml CST6 antibody (MAB1286, R&D) was used to neutralize recombinant human CST6 in RAW264.7 osteoclastogenesis assay.

The test system of data set [3] is murine primary bone marrow cells. The data set is described as follows: Osteoclastogenesis of primary bone marrow cells (TRAP staining). In kind it is cell-based, mouse. Conditions: n = 3 independent experiments; for osteoclast differentiation of primary bone marrow cells: 10 μM inhibitor, Fig. 2F. Here is the method: as §1
Data set [4] deals with SPHK1. The experiment in a line: Intracellular SPHK1 protein level in RAW264.7 (Western blot). In kind it is cell-based, mouse. Conditions: Fig. 3B. From the text:
SPHK1 is cleaved by CTSB [20], and more importantly, SPHK1 can negatively regulate osteoclast differentiation by phosphorylating sphingosine into sphingosine-1-phosphate (S1P). Concordantly, we observed that Ctsb knockdown increased SPHK1 expression in primary bone marrow cells (Fig. 3A). […] Similarly, Sphk1 knockdown could also recover osteoclastogenesis of RAW264.7 that was suppressed by the treatment of CST6 recombinant (Fig. 3G, H).
For orientation: In western blotting, separated proteins are transferred to a membrane and probed.

Data set [5] relates to SCP2 cells. The experiment in a line: SCP2 bone metastasis in mice (intracardiac injection). In kind it is in vivo, mouse. Here is the method: For bone metastasis study was performed as previously described. Briefly, athymic Balb/c mice were anesthetized and 10^5 cells in 100 μL phosphate-buffered saline (PBS) were injected into the left cardiac ventricle. Peptides were administrated intravenously into the mice (n = 10 per group) at a dose of 1 mg/kg/day. The control mouse group were administered with same volume of peptide solvents. The metastatic burden was measured by bioluminescent imaging (BLI) with a NightOWL II LB983 Imaging System (Berthold). The osteolytic area was analyzed by the SkyScan 1076 In vivo X-ray Microtomograph (Bruker). The sections of hind legs of the mice was used for H&E, TRAP and immunohistochemistry staining.

The nature of data set [6]: Chronic toxicity assay. The format is in vivo, mouse. The following applies: 10 mg/kg CA-074 for 8 consecutive days, nude mice, n = 9 per group; Fig. S6B. How it is done:
[…] The body weights of the mice were measured. […] Mice were sacrificed and organs were harvested for weight measurements and H&E staining to observe the pathological changes.

The subject of data set [7] is p38. The experiment in a line: Phosphorylation of p38 in RAW264.7 (Western blot). In kind it is cell-based, mouse.
Method: To further validate the involvement of p38 signaling in CST6-suppresesed osteoclastogenesis, the p38 inhibitor SB203580 was used to treat RAW264.7 cells that were cultured in cancer cell CM.
Data set [8] in a line: Acute toxicity assay. In kind it is in vivo, mouse. Conditions: Balb/c mice, intravenous, death counted after 24 h, n = 5 per group. How it is done:
For acute toxicity assays, Balb/c mice (n = 5 per group) were intravenously injected with the indicated protein or peptides at doses of 150, 200, 250, 300, 350 mg/kg. The death of mice was counted after 24 h. The median lethal dose (LD50) was calculated using the Bliss method.

Data set [9] deals with SCP2/SCP4 tumor cells. The experiment in a line: Tumor cell growth after CST6 recombinant protein treatment. In kind it is cell-based. The following applies: 32 nM, n = 4 biological repeats, Fig. S1F.
Data set [10] can be described thus: Pharmacokinetic assay, circulation half-life. The format is in vivo, mouse. The following applies: Balb/c mice, 1 mg/kg intravenous, serum 0.25-4 h, ELISA (CST6 or His-tag), one-phase decay model; n = 4. How it is done:
For pharmacokinetic assays, CST6 protein or His-tagged peptides were administrated intravenously into Balb/c mice (n = 4 per group) at a dose of 1 mg/kg. Blood samples (100 μL) were collected using capillary at 0.25 h, 0.5 h, 1 h, 2 h, 3 h and 4 h, respectively. After 1 h at room temperature, the serum samples were obtained from the supernatant by centrifugation at 3000 rpm for 15 min. The CST6 content in serum was analyzed with CST6 ELISA kit (Sino Biological, 10438). The peptide content was analyzed with the His-tag ELISA kit (GenScript, L00436) according to the manufacturer's instruction. Blank serum samples from mice without protein/peptide administration were used as control. Standard curves for each protein or peptide were generated with standard samples of known concentrations to calculate the protein/peptide concentration in blood samples. The data for all peptides were fitted with the one-phase decay model using Prizm software (GraphPad Software) to calculate the half-lives.

Data set [11] addresses T1, CTSB (Mus musculus, UniProt P10605).
T1 construct: endogenous in cells; host or cells: RAW264.7
The data set is described as follows: Intracellular CTSB activity of RAW264.7 after treatment. The format is cell-based. The following applies: 32 nM CST6 protein in medium, lysates after PBS washing; Fig. 2I. How it is done: Cathepsins are lysosomal proteases and function only intracellularly in acidic environment. To verify that extracellularly derived CST6 could inhibit the intracellular CTSB activity of osteoclasts, RAW264.7 cells were cultured in the medium containing recombinant CST6 protein and the cell lysates were collected for CTSB activity analysis after phosphate-buffered saline (PBS) washing of the cells. […] Since osteoclasts are active in endocytosis, it is likely that exogenous CST6 is transported into osteoclasts via endocytosis. Indeed, we observed a co-localization of CST6 that entered the cells with the lysosome marker LAMP1 (Fig. S3B). […]
Enzymatic activities of cathepsins were analyzed with the fluorometric kits of CTSB (K147, Biovision) and CTSL (K161, Biovision) according to the manufacturer's protocol. The LGMN activity was analyzed as previously described with minor modifications of the protocol. […] After three freeze-thaw cycles at -80 °C, the cell lysate was centrifuged at 10000 g for 15 min and the supernatant was transferred into a new tube followed by protein quantification. […] After adding 1 μL substrate Z-Ala-Ala-Asn-AMC (I1865, Bachem) into each well with a final concentration of 10 μM, fluorescence measurements were performed every 5 min at 37 °C using a BioTek's Synergy™ Mx Microplate Reader with a 360 nm excitation filter and a 460 nm emission filter. […]

The subject of data set [12] is RAW264.7 or primary bone marrow-derived osteoclasts. The experiment in a line: Viability of osteoclasts after CST6 recombinant protein treatment. The format is cell-based, mouse. Conditions: n = 4 independent experiments; Fig. S1E.
The nature of data set [13]: Tissue distribution by CST6 immunohistochemistry. Conditions: week 5 of 1 mg/kg/day, Fig. S6A. In kind it is in vivo, mouse. Here is the method: We then performed pharmacological evaluation of CST6 protein and peptides.
Supplementary Figure 6. Pharmacological evaluation of CST6 recombinant protein and CA-074.
(A) CST6 immunohistochemistry in various organs at week 5 after administration of 1 mg/kg/day CST6 peptides. The lung section from un-treated mice was used as negative control of the assay. Dotted lines denotes areas of bone metastasis. Scale bar, 150 μm. (B) The body weights of nude mice after treatment of 10 mg/kg CA-074 for 8 consecutive days (n = 9 mice per groups).
(1 picture or pasted object on this page, not shown here)

Where [14] appears, read: nude mice with SCP2, 1 mg/kg/day intravenous, n = 10 mice per group.

Where a SMILES comes first, the peptide text is derived from it. The star is where a group is joined. Cbz = O=C(OCc1ccccc1)*; CHN2 = [N-]=[N+]=C*; tBu = CC(C)(C)*

T1 sequence (P10605 80-339): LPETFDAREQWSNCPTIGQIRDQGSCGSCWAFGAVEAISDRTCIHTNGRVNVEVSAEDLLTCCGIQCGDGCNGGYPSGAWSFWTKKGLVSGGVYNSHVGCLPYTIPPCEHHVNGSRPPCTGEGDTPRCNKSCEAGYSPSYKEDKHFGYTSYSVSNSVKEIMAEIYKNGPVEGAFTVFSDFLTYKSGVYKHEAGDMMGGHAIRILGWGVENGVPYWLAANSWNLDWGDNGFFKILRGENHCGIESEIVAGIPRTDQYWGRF

Regarding `O=C(N/N=C/c1ccc(O)c(O)c1)c1cc2ccccc2cc1O` [Dynasore], in data set [1], the “effect on intracellular accumulation of CST6” value is reported as “reduced the intracellular accumulation of CST6 in a dosage-dependent manner”.

Consider `CCCNC(=O)[C@H]1O[C@@H]1C(=O)N[C@H](C(=O)N1CCC[C@H]1C(=O)OC)[C@@H](C)CC` [CA-074Me], for which the “osteoclast differentiation of RAW264.7 cells” value in data set [2] (treatment with Z-FY or CA074Me, n = 3 independent experiments, Fig. 2G) is reported as “able to inhibit osteoclast differentiation”. In addition, the “osteoclast differentiation of primary bone marrow cells” value in data set [3] was “able to inhibit osteoclast differentiation”. Moreover, in [4], the “intracellular SPHK1 protein” value is on record as “stabilized the intracellular SPHK1 protein in a dose-dependent manner”.

`CC(C)(C)Oc1ccc(C[C@H](NC(=O)[C@H](Cc2ccccc2)NC(=O)OCc2ccccc2)C(=O)C=[N+]=[N-])cc1` [Z-FY(t-Bu)-DMK] (Cbz-Phe-Tyr(tBu)-CHN2): the “osteoclast differentiation of primary bone marrow cells” value in data set [3] is “but not the CTSL inhibitor Z-FY(t-Bu)-DMK, was able to inhibit osteoclast differentiation”.

Turning to `CC(C)C[C@H](NC(=O)[C@H](Cc1ccccc1)NC(=O)c1cnccn1)B(O)O` [Bortezomib, reference compound], in data set [5] (nude mice with SCP2, 1 mg/kg/day, Fig. 5F, Fig. S5B (week 5)), the “body weight of metastasis-bearing mice” value is listed as “but not Bortezomib, recovered the body weight of mice”.

Regarding `CCCNC(=O)[C@H]1O[C@@H]1C(=O)N[C@H](C(=O)N1CCC[C@H]1C(=O)O)[C@@H](C)CC` [CA-074], the “body weight of mice” value in data set [6] is recorded as “caused apparent body weight loss of the mice”.

Take `C[S+]([O-])c1ccc(-c2nc(-c3ccncc3)c(-c3ccc(F)cc3)[nH]2)cc1` (stereo not drawn) [SB203580, reference compound]: the “CM-induced p38 phosphorylation” value in data set [7] (RAW264.7 with RANKL and CM from CST6-knockdown or control SCP4, opposite to enhancement, Fig. 3K) is given as “showed the opposite effect”. In addition, the “CM-induced osteoclast maturation of RAW264.7” value in data set [2] (RAW264.7 with RANKL and CM from CST6-knockdown or control SCP4, opposite to enhancement, Fig. 3L) was “showed the opposite effect”.

B1: CST6: human CST6 recombinant protein expressed in E. coli, type 2 cystatin, inhibitor of cysteine proteases (protein, UniProt Q15828 29-149, looked up)
Cystatin-M: RPQERMVGELRDLSPDDPQVQKAAQAAVASYNMGSNSIYYFRDTHIIKAQSQLVAGIKYFLTMEMGSTDCRKTRVTGDHVDLTTCPLAAGAQQEKLRCDFEVLVVPWQNSSQLLKHNCVQM
modifications: His tag
Usually LD50 stands for the dose expected to kill half of the subjects tested. A lower LD50 goes with greater toxicity. Molecule B1 registered an LD50 in data set [8] (150-350 mg/kg, Bliss method) of 322.00 ± 117.10 mg/kg. Further, the MTD in [8] turned out to be 200 mg/kg. In addition, the “growth of tumor cells” value in data set [9] is “did not directly affect the growth of tumor cells”. Moreover, in [7] (RAW264.7, Fig. 3B), the p38 activation result was “inhibited p38 activation”. For the same molecule, the Half-life in data set [10] is reported as 10.48 min. In addition, the “intracellular CTSB activity of RAW264.7” value in data set [11] is recorded as “inhibited the intracellular CTSB activity of RAW264.7”. In addition, the viability of osteoclasts result in [12] is reported as “did not affect the viability of osteoclasts”. In [13], the “tissue distribution of administrated protein” value was “mainly distributed in liver, kidney, intestine, spleen and bone metastasis foci”. Also, the “expression of marker genes of osteoclastic differentiation (Caclr, Nfatc1, Acp5, Ctsk, Fos)” value in data set [2] (RAW264.7, n = 3 biological repeats, Fig. 1J) is “downregulated”. The “osteoclastic differentiation of RAW264.7 cells” value in data set [2] (cultured with RANKL, 32 nM human CST6 protein, Fig. 1I) was “inhibition of osteoclastic differentiation of cells”. The “osteoclastogenesis of primary bone marrow cells” value in [3] (RANKL-containing medium, 5 to 6 days, TRAP staining, indicated concentrations) was “significantly suppressed RANKL-induced differentiation of bone marrow cells into osteoclasts in a dosage-dependent manner”. In addition, the “intracellular SPHK1 protein” value in data set [4] is “stabilized the intracellular SPHK1 protein in a dose-dependent manner”. Further, the “bone metastasis (BLI)” value in [5] (nude mice pre-inoculated with SCP2, 1 mg/kg/day intravenous, n = 10 mice per group) is “efficiently alleviated bone metastasis”. For the same molecule, in data set [5] (setting [14]), the “osteoclastogenesis and bone destruction in metastases (TRAP+ cells, micro-CT)” value is “reduced osteoclastogenesis and bone destruction”; the “survival of the mice” value was “extended survival of the mice”.
